Broadly, the IC50 is the concentration needed to halve the response being measured. In general, Kd refers to the free concentration of one partner at which half of the binding sites on the other are occupied at equilibrium, for simple one-to-one binding.

Experiment [1] concerns the target Calcineurin (CN), purified as glutathione S-transferase fusion protein from Escherichia coli BL21 cells (UniProt Q08209). Briefly: FA competition, competitor FITC-ZIZIT (100 nM), CN 150 nM.
For experiment [2] the target is unchanged. Briefly: fluorescence anisotropy, N-terminal 5(6)-SFX labeled peptide (100 nM) titrated with CN.
Experiment [3] has the same target. In words: fluorescence anisotropy, ratio of KD values against VIVIT. For orientation: Fluorescence polarisation rises when a labelled molecule tumbles more slowly, as on binding a larger partner.
For a further experiment, the target named is T1, Grb2 SH2 domain (UniProt P62993 60-152, limits assumed).
T1 construct: domain: SH2 domain; also called SH2 domain of Grb2
Briefly: fluorescence anisotropy, FITC-labeled ZIZIT-cisPro 100 nM.

In experiment [4] the target is bovine serum albumin (BSA) (bovine, UniProt P02769 25-607). The description is as above.
In experiment [5] the target is Calcineurin (CN), purified as glutathione S-transferase fusion protein from Escherichia coli BL21 cells (UniProt Q08209). In words: in vitro binding to CN, against ZIZIT.
Experiment [6] shares this target. Briefly: fluorescence anisotropy, ratio of KD values against ZIZIT.
Experiment [7] deals with protein-tyrosine phosphatase SHP1 (UniProt P29350). Briefly: fluorescence anisotropy, FITC-labeled ZIZIT-cisPro 100 nM.

Starred links: 1 amine or outer side, 2 acyl side, 3 side chain; linkers in the order of their positions; H or OH if unused. Non-standard residues stand in square brackets, D forms with d. *: point of attachment. Cys(ΨMe,MePro) = 2,2-dimethyl-L-thiazolidine-4-carboxylic acid, cis-proline analog, CC1(C)SC[C@@H](C(=O)[*:2])N1[*:1]; F∗ = N-terminal 5(6)-SFX fluorescein label; Tle = CC(C)(C)[C@H](N)C(=O)O; NHPr = CCCN* Some results are limits rather than exact numbers.

bovine serum albumin (BSA), sequence (P02769 25-607 limits assumed): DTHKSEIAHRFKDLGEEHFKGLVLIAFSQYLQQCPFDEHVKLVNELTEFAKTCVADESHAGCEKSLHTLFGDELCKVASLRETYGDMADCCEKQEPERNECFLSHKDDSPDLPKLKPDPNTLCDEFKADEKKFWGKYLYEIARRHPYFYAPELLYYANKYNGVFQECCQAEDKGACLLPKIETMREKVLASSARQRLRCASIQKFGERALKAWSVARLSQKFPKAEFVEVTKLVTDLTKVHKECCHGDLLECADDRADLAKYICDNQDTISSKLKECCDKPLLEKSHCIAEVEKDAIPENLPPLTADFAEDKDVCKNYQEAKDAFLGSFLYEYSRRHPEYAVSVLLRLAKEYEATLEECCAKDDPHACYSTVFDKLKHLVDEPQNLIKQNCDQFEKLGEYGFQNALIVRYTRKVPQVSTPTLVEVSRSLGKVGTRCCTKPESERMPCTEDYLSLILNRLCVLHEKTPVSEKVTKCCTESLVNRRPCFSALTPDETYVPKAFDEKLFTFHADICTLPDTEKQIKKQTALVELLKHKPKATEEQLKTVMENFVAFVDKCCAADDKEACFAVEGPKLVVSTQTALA
T1 sequence (P62993 60-152 limits assumed): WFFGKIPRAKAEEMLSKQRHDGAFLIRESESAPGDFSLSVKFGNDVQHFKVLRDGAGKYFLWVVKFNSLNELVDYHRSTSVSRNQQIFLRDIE

Turning to “unlabeled ZIZIT peptide (GPHPZIZITGPHEE, Z = tert-leucine)”, in experiment [1], the half-maximal inhibitory concentration (IC50) was determined as 280 nM.

As to “unlabeled ZIZIT-cisPro peptide (GPHPZIZITG-Cys(Ψ^Me,MePro)-HEE)”, the IC50 in experiment [1] worked out at 110 nM.

Take “Fluorescein-labeled ZIZIT peptide (GPHPZIZITGPHEE, Z = tert-leucine)”: the Kd in experiment [2] was 43 nM. In experiment [3], the fold higher affinity than VIVIT is 10 fold.

B1: F*-GPHPZIZITG-Cys(Ψ^Me,MePro)-HEEG-Propyl (F*-ZIZIT-cis), fluorescein-labeled ZIZIT-cisPro (peptide)
peptide: {F∗}-GPHP[Tle]I[Tle]ITG[Cys(ΨMe,MePro)]HEEG-NHPr
notes: also called FITC-labeled ZIZIT-cisPro
Consider B1, for which the binding result (in the experiment with Grb2 SH2 domain; in experiment [4]) was “no binding (tested: 15 µM)” in each case. The Kd was 2.6 nM in experiment [2] and greater than 15 µM in experiment [7]. In experiment [5], the fold more active than ZIZIT for binding amounted to 15 fold. The fold increase of binding affinity over ZIZIT in experiment [6] amounted to 20 fold. In addition, the fold improvement of binding affinity over VIVIT in experiment [3] came to 200 fold.

B2: F*-…-NH2 (F*-VAVAA), fluorescein-labeled negative control peptide (peptide)
peptide: {F∗}-GPHAVAVAAGPHEE-NH2
In the case of B2, the Kd in experiment [2] was greater than 20000 nM.

The record behind these values is US20170281723A1 (OHIO STATE INNOVATION FOUNDATION, published 2017).
